Experimental data from patent US20240293561A1, “BRAIN PERMEABLE MULTIFUNCTIONAL SYSTEM AND USES THEREOF” (NANOCARRY THERAPEUTICS LTD., priority 2021, published 2024).

Assay: Delivery of cisPt&IgG1&Ins-GNPs into mice brain, Au and Pt measured by ICP-OES
Type: in vivo, Male BALB/c mice
Settings: 8 hours after IV injection, after perfusion
Method: Male BALB/c mice were divided into four treatment groups: • Group 1: Anti-IgG1 & insulin-conjugated GNPs (IgG1&Ins-GNPs; n=2) • Group 2: Cisplatin & insulin-conjugated GNPs (CisPt&Ins-GNPs; n=2) • Group 3: Multifuctional GNPs (cisPt&IgG1&Ins-GNPs; n=2) • Group 4: Free cisplatin (n=2)
Mice were injected intravenously with IgG1&Ins-GNPs (200 μl, 25 mg/ml), cisPt&Ins-GNPs (200 μl of 25 mg/ml), cisPt&IgG1&Ins-GNPs (200 μl of 25 mg/ml), or with equivalent amounts of free cisplatin. Eight hours post injection, mice underwent perfusion to remove all the particles residing within the blood vessels. Then, mice brains were extracted and analyzed using ICP-OES to measure the amounts of Au and Pt that penetrated into the brain (FIGS. 6A and 6B, respectively).

## cisPt&Ins-GNPs: GNPs conjugated with insulin and cisplatin; control particle
  amount of Pt within the brain compared with equivalent dose of free cisplatin: significantly higher
